# Results: publication PMC9436414
# Tests used:
# Experiment in all cases: purified protein
# [1] = substrate: C[C@@H](N)C(=O)O; settings: 200 mM HEPES/KOH pH 7.5, 0.1 mM DCPIP, 1.5 mM PES, 10 mM KCN, 37 °C, pH 7.5
# [2] = substrate: N[C@H](CO)C(=O)O; settings: DCPIP-coupled assay, 37 °C, exact D-serine reaction mix not stated
# [3] = substrate: N[C@@H](CO)C(=O)O; settings: 7 mM oxaloacetate as acceptor, 50 mM HEPES/KOH pH 7.5, 37 °C, pH 7.5
# [4] = substrate: O=C(O)CC(=O)C(=O)O; settings: 100 mM serine as amine donor, 50 mM HEPES/KOH pH 7.5, 37 °C, pH 7.5
Protein,Km [1],kcat [1],kcat/Km [1],Km [2],kcat [2],kcat/Km [2],Km [3],kcat [3],Km [4],kcat [4],kcat/Km [4]
DadA (Escherichia coli K-12) (protein) MRVVILGSGVVGVASAWYLNQAGHEVTVIDREPGAALETSAANAGQISPGYAAPWAAPGVPLKAIKWMFQRHAPLAVRLDGTQFQLKWMWQMLRNCDTSHYMENKGRMVRLAEYSRDCLKALRAETNIQYEGRQGGTLQLFRTEQQYENATRDIAVLEDAGVPYQLLESSRLAEVEPALAEVAHKLTGGLQLPNDETGDCQLFTQNLARMAEQAGVKFRFNTPVDQLLCDGEQIYGVKCGDEVIKADAYVMAFGSYSTAMLKGIVDIPVYPLKGYSLTIPIAQEDGAPVSTILDETYKIAITRFDNRIRVGGMAEIVGFNTELLQPRRETLEMVVRDLYPRGGHVEQATFWTGLRPMTPDGTPVVGRTRFKNLWLNTGHGTLGWTMACGSGQLLSDLLSGRTPAIPYEDLSVARYSRGFTPSRPGHLHGAHS,1.26 ± 0.26 mM,0.81 s⁻¹,642 M⁻¹ s⁻¹,64.77 ± 9.28 mM,0.37 s⁻¹,5.71 M⁻¹ s⁻¹,–,–,–,–,–
BhcA (Paracoccus denitrificans PD1222) (protein) MTSQNPIFIPGPTNIPEEMRKAVDMPTIDHRSPVFGRMLHPALEGVKKVLKTTQAQVFLFPSTGTGGWETAITNTLSPGDKVLAARNGMFSHRWIDMCQRHGLDVTFVETPWGEGVPADRFEEILTADKGHEIRVVLATHNETATGVKSDIAAVRRALDAAKHPALLFVDGVSSIGSMDFRMDEWGVDIAVTGSQKGFMLPPGLAIVGFSPKAMEAVETARLPRTFFDIRDMATGYARNGYPYTPPVGLINGLNASCERILAEGLENVFARHHRIASGVRAAVDAWGLKLCAVRPELYSDSVSAIRVPEGFDANLIVSHALETYDMAFGTGLGQVAGKVFRIGHLGSLTDAMALSGIATAEMVMADLGLPIQLGSGVAAAQEHYRQTTAAAQKKAA,–,–,–,–,–,–,7 mM,25.9 s⁻¹,0.23 ± 0.03 mM,31.2 s⁻¹,140000 M⁻¹ s⁻¹
